Here are results for two molecules from patent US20250136692A1 (GEORGIAMUNE, published 2025).

This assay addresses PD-1 on human CD4+ T cells (human, UniProt Q15116 25-288). Put plainly: cell-based or functional assay.

PD-1 on human CD4+ T cells, sequence (Q15116 25-288 limits assumed): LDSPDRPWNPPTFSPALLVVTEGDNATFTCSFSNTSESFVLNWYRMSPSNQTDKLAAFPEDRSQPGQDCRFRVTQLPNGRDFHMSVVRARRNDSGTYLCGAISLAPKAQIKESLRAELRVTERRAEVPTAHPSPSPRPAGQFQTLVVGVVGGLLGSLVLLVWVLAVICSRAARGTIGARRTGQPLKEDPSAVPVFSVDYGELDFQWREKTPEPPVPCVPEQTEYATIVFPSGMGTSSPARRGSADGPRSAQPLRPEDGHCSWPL

B1: 4G9-2 (antibody, human IgG1, kappa, V domains shown)
VH: QVQLVQSGAEVKKPGASVKVSCKASGYTFTTYGINWVRQATGQGLEWMGWINTYSGVPGYAQKFQGRVTMTLNTSISTAYMELSSLRSEDTAVYYCARGSGGFAYWGQGTLVTVSS
VL: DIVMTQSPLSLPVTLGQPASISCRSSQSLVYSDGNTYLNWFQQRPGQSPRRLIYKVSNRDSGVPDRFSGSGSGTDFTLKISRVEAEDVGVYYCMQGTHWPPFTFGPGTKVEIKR
On to B1, for which the “IFN-γ levels in the supernatants of human CD4 T cells (ELISA), 4G9-2 at 25 µg/mL for 72 hours” value is 3 fold.

B2: 4G9-12 (antibody, V domains shown)
VH: QVQLVQSGAEVKKPGASVKVSCKASGYTFTTYGINWVRQATGQGLEWMGWINTYSGVPGYAQKFQGRVTMTLDTSISTAYMELSSLRSEDTAVYYCARGSGGFAYWGQGTLVTVSS
VL: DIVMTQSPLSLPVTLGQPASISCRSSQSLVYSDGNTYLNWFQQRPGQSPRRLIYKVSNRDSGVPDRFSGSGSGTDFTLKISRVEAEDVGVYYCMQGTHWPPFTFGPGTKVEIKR
For B2, the “ITK/SHP2 ratio (normalized to levels of PD-1), Protein A immunoprecipitation and Western blot” value was 3 fold.
